Assay results published in publication PMC5748837, “Biochemical characterization of INTS3 and C9ORF80, two subunits of hNABP1/2 heterotrimeric complex in nucleic acid binding” (Biochemical Journal, 2017).

B1: Human nucleic acid-binding protein 2 (hNABP2) (natural protein, UniProt Q9BQ15 1-211, looked up)
chain: MTTETFVKDIKPGLKNLNLIFIVLETGRVTKTKDGHEVRTCKVADKTGSINISVWDDVGNLIQPGDIIRLTKGYASVFKGCLTLYTGRGGDLQKIGEFCMVYSEVPNFSEPNPEYSTQQAPNKAVQNDSNPSASQPTTGPSAASPASENQNGNGLSAPPGPGGGPHPPHTPSHPPSTRITRSQPNHTPAGPPGPSSNPVSNGKETRRSSKR
notes: also called hSSB1; source: also co-expressed (pET29a) with GST-INTS3 and C9ORF80 in E. coli Rosetta 2, in lysate
B2: Human nucleic acid-binding protein 1 (hNABP1) (natural protein, UniProt Q96AH0 1-204, looked up)
chain: MNRVNDPLIFIRDIKPGLKNLNVVFIVLEIGRVTKTKDGHEVRSCKVADKTGSITISVWDEIGGLIQPGDIIRLTRGYASMWKGCLTLYTGRGGELQKIGEFCMVYSEVPNFSEPNPDYRGQQNKGAQSEQKNNSMNSNMGTGTFGPVGNGVHTGPESREHQFSHAGRSNGRGLINPQLQGTASNQTVMTTISNGRDPRRAFKR
notes: also called hSSB2; source: also co-expressed (pET29a) with GST-INTS3 and C9ORF80 in E. coli Rosetta 2, in lysate
B3: C9ORF80, His-tagged (natural protein, human, UniProt Q9NRY2 1-104, looked up)
chain: MAANSSGQGFQNKNRVAILAELDKEKRKLLMQNQSSTNHPGASIALSRPSLNKDFRDHAEQQHIAAQQKAALQHAHAHSSGYFITQDSAFGNLILPVLPRLDPE
notes: C9ORF80, human cDNA clone; pET28a, NcoI/XhoI sites (this would give a C-terminal His tag); the printed masses fit the whole 104-residue protein; also called C9OFR80; source: peak 2); also co-expressed with GST-INTS3 and hNABP1/2 in E. coli Rosetta 2, in lysate

Biological target: T1, GST-tagged N-terminal region of INTS3 (GST-INTS3^N, 1-513 amino acids) (human, UniProt Q68E01 1-513)
T1 construct: Integrator complex subunit 3 (INTS3), human, N-terminal region, residues 1-513; pGEX-6P-1; source: E. coli Rosetta 2, purified (glutathione sepharose beads); not shown: GST, N-terminal, kept
Experiment: pull-down; GST-INTS3^FL, -INTS3^N or -INTS3^C incubated with hNABP1/2 or C9ORF80 at 4 C for 1 h, then glutathione-agarose beads 1 h; eluted with 10 mM glutathione; Western blot
Settings: both partners purified

T1 sequence (Q68E01 1-513): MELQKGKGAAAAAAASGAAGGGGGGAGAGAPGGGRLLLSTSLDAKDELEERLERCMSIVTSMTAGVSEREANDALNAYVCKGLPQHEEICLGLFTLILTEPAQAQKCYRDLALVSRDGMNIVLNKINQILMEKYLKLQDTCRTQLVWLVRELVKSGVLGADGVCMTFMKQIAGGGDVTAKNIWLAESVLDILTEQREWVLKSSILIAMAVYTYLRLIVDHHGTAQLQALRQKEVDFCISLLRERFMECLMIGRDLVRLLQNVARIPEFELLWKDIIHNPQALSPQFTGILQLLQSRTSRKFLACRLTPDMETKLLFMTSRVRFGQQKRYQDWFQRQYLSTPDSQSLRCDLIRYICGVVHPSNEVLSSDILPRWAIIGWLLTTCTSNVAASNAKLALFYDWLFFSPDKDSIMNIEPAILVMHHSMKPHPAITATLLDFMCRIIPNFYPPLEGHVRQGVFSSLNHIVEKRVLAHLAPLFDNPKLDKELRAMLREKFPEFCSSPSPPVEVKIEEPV

Binding result, binds:
B1, B2, B3
